Test results taken from patent publication US20040014658A1.

Key:
Assay in all cases: cell-based or functional assay
FGF Receptor 2 = target: FGF Receptor 2
FGF Receptor 1 = target: FGF Receptor 1
FGF Receptor 3 = target: FGF Receptor 3

Measured: JNK activation (Western, anti-active JNK), lowest active concentration

FGF Receptor 3, sequence (P22607 23-806): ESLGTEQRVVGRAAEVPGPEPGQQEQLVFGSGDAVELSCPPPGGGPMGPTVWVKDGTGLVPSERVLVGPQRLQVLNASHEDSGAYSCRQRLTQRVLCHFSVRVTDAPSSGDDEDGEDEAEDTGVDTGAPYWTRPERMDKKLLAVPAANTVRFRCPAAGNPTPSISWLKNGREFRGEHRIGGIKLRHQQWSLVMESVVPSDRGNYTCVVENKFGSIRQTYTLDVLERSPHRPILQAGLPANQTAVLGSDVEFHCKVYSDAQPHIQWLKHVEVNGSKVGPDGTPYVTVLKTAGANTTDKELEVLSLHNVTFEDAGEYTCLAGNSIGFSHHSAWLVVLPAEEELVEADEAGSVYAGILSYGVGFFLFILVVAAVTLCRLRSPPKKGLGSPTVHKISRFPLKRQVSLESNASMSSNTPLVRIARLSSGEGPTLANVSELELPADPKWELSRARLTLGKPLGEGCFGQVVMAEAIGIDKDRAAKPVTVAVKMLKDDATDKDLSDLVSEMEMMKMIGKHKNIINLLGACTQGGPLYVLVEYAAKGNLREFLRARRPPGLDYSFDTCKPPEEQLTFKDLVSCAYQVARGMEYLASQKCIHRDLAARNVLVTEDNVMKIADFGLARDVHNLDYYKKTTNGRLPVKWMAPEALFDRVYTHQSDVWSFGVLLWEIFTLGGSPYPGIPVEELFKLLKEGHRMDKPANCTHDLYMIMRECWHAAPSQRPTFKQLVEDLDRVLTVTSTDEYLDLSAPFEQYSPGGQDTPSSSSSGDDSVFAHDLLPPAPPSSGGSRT

wild type FGF-9 (ligand)
< 12.5 ng/mL: FGF Receptor 2 | FGF Receptor 1 | FGF Receptor 3
